10 molecules from patent US10597674B2, “HPPD variants and methods of use” (BASF Agricultural Solutions Seed, US LLC, priority 2015, dated 2020) can be followed below.

Assay [1] deals with transgenic T1 soybean events. Briefly: Field trials of T1 soybean events, leaf damage eight days after application. The class given is in vivo. How it is done: Soybean plants expressing an HPPD inhibitor tolerant polypeptide of the present invention alone, or along with a gene conferring tolerance to glyphosate and/or a gene conferring tolerance to glufosinate or having a “plant expression cassette”, which includes only an HPPD inhibitor tolerant polypeptide of the present invention, were tested for tolerance to different HPPD inhibitor herbicide chemical classes. The transgenic plants were routinely analyzed for the expression and presence of the transgenes using the ELISA protein detection method (see detailed description under item D and H). Only plants recovering in the selection media and having a detectable HPPD transgene protein expression were regenerated, transferred to the greenhouse and used at V2-V4 growth stage for the HPPD inhibitor herbicide tolerance analysis of the T0 soybean events in the greenhouse (Example 6). The chemical formulation with HPPD inhibitor herbicides was supplemented with ammonium sulfate and methyl ester rapeseed oil. Herbicide tolerance evaluation was taken 5-21 days after spraying. The best performing independent T0 soybean events were selfed to produce T1 soybean seeds. In the field trails, the advanced T1 soybean seeds were planted and treated with either 210 g/ha of isoxaflutole or 150 g/ha of Cmpd.
In Table 10, the frequency of the soybean events showing a good tolerance, i.e. equal or less than 15% damage of the total leaf area are summarized

In assay [2] the test system is HPPD polypeptides (wild-type SEQ ID NO:1 and mutants). As to conditions: different HPPD inhibitor herbicide chemical classes.
The subject of assay [3] is E. coli cells expressing an HPPD polypeptide. Briefly: Brown Color Assay on solid LB-agar, visual score of brown pigment. On the set-up: key to brown pigment formation: +++: a dark brown coloring as seen for E. coli cells expressing one of the respective mutant HPPD polypeptide without inhibitor; ++: medium brown pigmentation; +: light brown pigmentation; 0: no brown pigmentation development was detected on the LB agar plates. The class given is cell-based. As to conditions: for brown coloring compared with SEQ ID NO: 2, in words: 25, 50, 100, 250 and 500 μM Cmpd. 1. How it is done: Mutant HPPD polypeptides were analyzed using a brown color assay (WO2014/043435). Bacterial cells expressing the mutant HPPD polypeptide according to the invention were assayed in 96 well format for HPPD inhibitor tolerance by spotting on solid media containing LB-agar, selection agent for the expression vector pSE420(RI)NX (WO2014/043435), 5 mM tyrosine (Sigma-Aldrich, St. Louis, USA), 42 mM succinate (Sigma-Aldrich, St. Louis, USA) and six different concentrations of the HPPD inhibitor herbicide Cmpd. 1 (0-500 μM). In the brown color assay, an overnight culture of the E. coli cells expressing one of the respective mutant HPPD polypeptides were diluted to an OD600 of 1 and 10 μl extract was spotted in triplicates on plates containing 0, 25, 50, 100, 250, or 500 μM of Cmpd. 1. Plates were covered with airpore tape and incubated at 30 degrees C. After 24 hours, the cells were kept in darkness at room temperature and after 7 days the brown pigment formation was scored visually. In the presence of an HPPD inhibitor herbicide, this pigment formation is inhibited and the color of the agar plate will not alter, unless an HPPD inhibitor herbicide tolerant HPPD polypeptide is expressed and active. […] The “++” and “+” scores a medium and light brown pigmentation, respectively, and the “0” means that no brown pigmentation development was detected on the LB agar plates.

The test system is the same in assay [4]. Briefly: Brown color bioassay in liquid culture, residual brown color formation (BCF), OD440 after 96 hours. It is filed as cell-based. To be noted: Cmpd. 1 1000 μM, 96 hours. The method, boiled down: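 E. coli expressing HPPD variants were grown at 30 degrees Celsius from OD600 0.3-0.5 in LB with 5 mM HPP, with or without herbicide (e.g. Cmpd. 1, 1000 μM). After 96 hours, supernatant OD440 was measured; residual brown colour formation compares pigment with and without inhibitor.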

The subject of assay [5] is transgenic soybean T0 events. Kind of assay: Additional greenhouse trials of T0 soybean events, leaf damage score 0-100 as percentiles. It is filed as in vivo. To be noted: Cmpd. 1 300 g AI/ha, five days. The method, boiled down: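 Independent T0 events (21 to 94 per construct, single cassette insertion) expressing mutant HPPD were sprayed with HPPD inhibitor herbicide in the greenhouse. Leaf damage scored 5 days after application from 0 (no damage) to 100 (complete bleaching). Scores reported as percentile distributions (25th, median, 75th) per construct.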

For assay [6], the system named is transgenic soybean T0 events. Briefly: Greenhouse spray test of T0 soybean events, herbicide tolerance rating 0-3. The class given is in vivo. As to conditions: Cmpd. 1 300 g AI/ha, five days. How it is done: Tolerant green shoots were transferred to rooting media or grafted. Rooted plantlets were transferred to the greenhouse after an acclimation period. Plants containing the transgene were then sprayed with HPPD inhibitor herbicides, as for example with mesotrione at a rate of 300-600 g AI/ha, or with Cmpd. […] Five to ten days after the application, the symptoms due to the application of the herbicide were evaluated and compared to the symptoms observed on wild-type plants under the same conditions.
For example, T0 soybean plants having a “plant expression cassette”, which includes an HPPD inhibitor tolerant HPPD polypeptide of the present invention, were tested towards the tolerance of Cmpd. 1.
Prior greenhouse trials with the transgenic plants, soybean transformants were routinely analyzed for the expression and presence of the transgenes using the ELISA protein detection method (see detailed description under item D and H). Only plants recovering in the selection media and having a detectable HPPD transgene protein expression were used for the herbicide tolerance analysis. A DeVries Tracker Sprayer was calibrated prior to each spraying. The chemical formulation used for Cmpd. 1 was supplemented with ammonium sulfate and methylated rape seed oil. Spray tests were conducted with a concentration, which equals to 300 grams AI per hectare (300 g AI/ha). Tolerance was evaluated 5 days after spraying. […] A rating of “3” was assigned to plants showing good tolerance, i.e. less than 10% of the leaf area from the top three trifoliate leaves showing chlorosis or only very slight bleaching.

The mark [7] stands for this setting: 25 μM Cmpd. 1, scored after 7 days.
Setting [8] is: 50 μM Cmpd. 1, scored after 7 days.
Setting [9] is: 100 μM Cmpd. 1, scored after 7 days.
Where [10] appears, read: 250 μM Cmpd. 1, scored after 7 days.
The mark [11] stands for this setting: 500 μM Cmpd. 1, scored after 7 days.
[12] abbreviates: 150 g/ha Cmpd. 1, stage V2-V4, eight days after application.
Where [13] appears, read: 210 g/ha isoxaflutole, stage V2-V4, eight days after application.

Substitutions are numbered along the chain they refer to. In names and notes the source's numbering stands.

Regarding `CS(=O)(=O)c1cc(C(F)(F)F)ccc1C(=O)c1cnoc1C1CC1` [isoxaflutole, (5-cyclopropyl-4-isoxazolyl)[2-(methylsulfonyl)-4-(trifluoromethyl)phenyl]methanone, reference compound], in assay [1] (wild-type or segregated T1 soybean plants without tolerant polypeptide, 210 g/ha isoxaflutole or 150 g/ha Cmpd. 1, eight days), the leaf damage is given as 100%.

B1: SEQ ID NO:1 (protein, listed as Pseudomonas fluorescens)
chain: MADLYENPMGLMGFEFIEFASPTPGTLEPIFEIMGFTKVATHRSKNVHLYRQGEINLILNNEPNSIASYFAAEHGPSVCGMAFRVKDSQKAYNRALELGAQPIHIDTGPMELNLPAIKGIGGAPLYLIDRFGEGSSIYDIDFVYLEGVERNPVGAGLKVIDHLTHNVYRGRMVYWANFYEKLFNFREARYFDIKGEYTGLTSKAMSAPDGMIRIPLNEESSKGAGQIEEFLMQFNGEGIQHVAFLTDDLVKTWDALKKIGMRFMTAPPDTYYEMLEGRLPDHGEPVDQLQARGILLDGSSVEGDKRLLLQIFSETLMGPVFFEFIQRKGDDGFGEGNFKALFESIERDQVRRGVLTAD
modifications: 4-hydroxyphenylpyruvate dioxygenase (HPPD; Pseudomonas fluorescens) (1)..(358)
B1: the “character of inhibition by HPPD inhibitor herbicides (time-course)” value in assay [2] was “slow and tight binding inhibitor”. Further, the “brown pigmentation, in words” value in assay [3] (25 μM Cmpd. 1) is “do not produce any brown pigmentation”. Moreover, the “brown pigmentation in the presence of the HPPD inhibitor, in words” value in assay [4] is reported as “did not produce a substantial brown pigmentation”.

B2: SEQ ID NO: 104: mutant HPPD polypeptide: R213K M264L P268G T270E E335P G336H N337S A340V S344Q I345M (protein)
chain: B1 chain with R213K, M264L, P268G, T270E, E335P, G336H, N337S, A340V, S344Q, I345M
modifications: mutant HPPD polypeptide
notes: mutant HPPD polypeptide: R213K M264L P268G T270E E335P G336H N337S A340V S344Q I345M
For the molecule B2, the brown pigment formation result in assay [3] (setting [7]) is on record as “+++”; in assay [3] (setting [8]), “+++”; in assay [3] (setting [9]) it was “+++”; in assay [3] (setting [10]), “++”; in assay [3] (setting [11]) it was “++”. Further, in assay [5] (75th minus 25th percentile), the “leaf damage score, Interquartile range” value is 15.0. Besides, in assay [5] (scale 0 (no damage) to 100 (complete bleaching)), the “leaf damage score, 25th percentile” value was found to be 5.0. For the same molecule, the “leaf damage score, 75th percentile” value in assay [5] (scale 0-100) came to 20.0. Also, the “leaf damage score, 90th percentile” value in assay [5] (scale 0-100) was 72.5. For the same molecule, in assay [5] (scale 0-100), the “leaf damage score, Median” value worked out at 15.0.

B3: SEQ ID NO: 1: reference wild-type Pseudomonas fluorescens HPPD polypeptide (protein, listed as Pseudomonas fluorescens)
chain: B1 chain
modifications: 4-hydroxyphenylpyruvate dioxygenase (HPPD; Pseudomonas fluorescens) (1)..(358)
Take B3: the brown pigment formation in assay [3] (setting [7]), in assay [3] (setting [8]), in assay [3] (setting [9]), in assay [3] (setting [10]) and in assay [3] (setting [11]) was 0 in each case.

B4: 32 (protein)
chain: B1 chain with P268R, T270E, E335P, G336H, N337S, A340V, I345V
modifications: mutant HPPD polypeptide
Regarding B4, in assay [3], the “brown coloring compared with SEQ ID NO: 2, in words” value was “stronger brown coloring”.

B5: 96 (protein)
chain: B1 chain with R213K, P268G, T270E, E335P, G336H, N337S, A340V, I345V
modifications: mutant HPPD polypeptide
B5: in assay [3], the “brown coloring compared with SEQ ID NO: 2, in words” value was “stronger brown coloring”.

B6: SEQ ID NO:104 (protein)
chain: B1 chain with R213K, M264L, P268G, T270E, E335P, G336H, N337S, A340V, S344Q, I345M
modifications: mutant HPPD polypeptide
For the molecule B6, the “brown coloring compared with SEQ ID NO: 2, in words” value in assay [3] was “stronger brown coloring”.

B7: SEQ ID NO:2 (protein)
chain: B1 chain with E335P, G336W, K339A, A340Q
modifications: mutant HPPD polypeptide
For the molecule B7, the “proportion of T0 soybean events with less than 10% leaf damage” value in assay [6] worked out at 54%. In addition, in assay [6] (less than 50% leaf damage), the “Percentage events rated “2 & 3”” value is given as 83%.

B8: SEQ ID NO: 16: mutant HPPD polypeptide: P268S T270S E335P G336D N337S A340V I345K (protein)
chain: B1 chain with P268S, T270S, E335P, G336D, N337S, A340V, I345K
modifications: mutant HPPD polypeptide
notes: mutant HPPD polypeptide: P268S T270S E335P G336D N337S A340V I345K
As to B8, in assay [1] (setting [12]), the “Frequency in the population (events with ≤15% leaf damage)” value amounted to 95% and the “Independent events with ≤15% leaf damage after spray” value amounted to 19. In addition, in assay [1] (setting [13]), the “Frequency in the population (events with ≤15% leaf damage)” value is 95% and the “Independent events with ≤15% leaf damage after spray” value was found to be 19.

B9: SEQ ID NO: 103 (protein)
chain: MADLYENPMGLMGFEFIEFASPTPGTLEPIFEIMGFTKVATHRSKNVHLYRQGEINLILNNEPNSIASYFAAEHGPSVCGMAFRVKDSQKAYNRALELGAQPIHIDTGPMELNLPAIKGIGGAPLYLIDRFGEGSSIYDIDFVYLEGVERNPVGAGLKVIDHLTHNVYRGRMVYWANFYEKLFNFREARYFDIKGEYTGLTSKAMSAPDGMIKIPLNEESSKGAGQIEEFLMQFNGEGIQHVAFLTDDLVKTWDALKKIGMRFLTAPGDEYYEMLEGRLPDHGEPVDQLQARGILLDGSSVEGDKRLLLQIFSERLMGPVFFEFIQRKGDDGFGPHSFKVLFEQMERDQVRRGVLTAD
modifications: mutant HPPD polypeptide
Consider B9, for which the brown pigment formation entry is “++” in assay [3] (setting [7]); “++” in assay [3] (setting [8]); “++” in assay [3] (setting [9]); “+” in assay [3] (setting [10]); 0 in assay [3] (setting [11]).
